From the supplement of paper PMC10567573

B1: SEC22B (parent)
chain: AKQLFRKLNEQSPTRCTLEAGAMT
B2: C1orf137 (parent)
chain: RQHHHQSSFPGSLPQETNLTLKVC

Variants of: B1
Assay: protein stability index of a GFP-peptide fusion (GPS, HEK-293T) (PSI 1-6); higher = more stable
Details: c terminus: a fixed tail appended
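Also: lentivirally expressed fusions sorted by FACS into six bins by GFP to DsRed ratio, PSI derived from sequencing read proportions per bin multiplied by bin number.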

Protein stability index of substitutions, site by site:
R6: E 2.46 | A 2.14 | C 2.42 | D 2.67 | H 2.46 | I 1.67 | G 2.36 | F 1.49
K2: C 1.7 | P 2.57 | T 1.83 | H 1.94 | N 2.72 | Y 2.24 | F 1.72 | M 1.8 | G 2.77 | Q 2 | I 1.43 | D 2.42 | A 2.13 | R 2.76 | L 2.1 | E 2.92 | W 2.92 | V 1.54 | S 2.4
F5: K 3.47 | D 3.37 | G 3.62 | W 1.94 | N 3.07 | P 3.46 | L 2.48 | T 2.75 | Q 3.23 | C 2.55 | M 2.62 | E 2.97 | A 3.67 | V 2.95 | Y 2.28 | I 2.3 | H 2.89 | R 3.22 | S 3.44
L4: M 2.4 | V 2.07 | W 2.02 | N 2.75 | T 3.27 | Q 2.68 | A 2.73 | G 2.94 | I 1.99 | H 3.12 | P 3.07 | D 3.27 | C 2.77 | F 1.89 | K 2.89 | E 3.62 | R 2.96 | Y 2.32 | S 3.44
Q3: F 2.18 | T 2.59 | K 2.02 | W 2.53 | I 1.77 | S 1.88 | L 2.08 | D 2.3 | M 1.94 | V 2.11 | A 2.2 | E 2.51 | C 2.39 | G 2.39 | Y 1.55 | H 1.93 | N 3.08 | R 1.93 | P 2.5
A1: Y 1.89 | M 1.6 | Q 2.44 | H 2.23 | T 2.3 | E 3.12 | R 2.23 | S 2.46 | V 2.16 | K 2.77 | G 2.26 | I 1.5 | D 2.98 | N 2.22 | P 2.52 | C 2.09 | L 2.07 | F 2.18

Variants of: B2
Assay: as above
Details: c terminus: a fixed tail appended

Protein stability index of substitutions, site by site:
K22: L 1.94 | N 2.92 | A 2.57 | C 1.75 | H 2.75 | T 2.43 | G 3.42 | F 2.14 | Y 2.28 | E 3.44 | P 3.53 | I 2.49 | S 3.34 | M 2.28 | Q 2.92 | D 3.5 | R 2.28
V23: Y 2.73 | D 4.72 | H 4.2 | N 3.34 | C 3.41 | R 3.83 | S 3.73 | W 2.86 | T 3.76 | L 3.03 | F 2.5 | A 3.78 | Q 4.5 | M 3.33 | K 2.97 | E 4.27 | P 3.79 | G 4.43 | I 2.46
C24: A 3.64 | P 3.51 | K 4.11 | Y 2.22 | M 2.44 | G 3.75 | T 3.37 | W 2.9 | D 4.36 | V 2.29 | Q 3.37 | S 3.41 | R 4.68 | N 3.7 | L 3.74 | I 1.9 | H 3.37 | F 1.9 | E 4.19
L21: T 4.54 | R 3.95 | Q 3.95 | N 4.32 | M 3.79 | W 3.08 | S 4.02 | Y 3.96 | V 3.23 | K 3.79
